Source: patent US20240409645A1 (DUALYX, published 2024)

T1: human IL-2Rβ (human, UniProt P14784 27-240, limits assumed)
T1 construct: Recombinant protein, coated (ELISA) or immobilised on CM5 (SPR); also called hu IL-2R; interleukin 2 receptor β-chain
T1 sequence: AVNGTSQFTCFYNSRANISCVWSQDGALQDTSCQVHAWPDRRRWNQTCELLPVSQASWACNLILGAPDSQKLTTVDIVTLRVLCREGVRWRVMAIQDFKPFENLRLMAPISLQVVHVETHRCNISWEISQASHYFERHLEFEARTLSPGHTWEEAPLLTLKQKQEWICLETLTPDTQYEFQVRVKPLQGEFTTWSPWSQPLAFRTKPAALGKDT


Key:
human IL-2Rβ [1] = biological target: T1, human IL-2Rβ; assay: SPR (Biacore), P.E. off-rate ranking
human IL-2Rβ [2] = biological target: T1, human IL-2Rβ; assay: P.E. binding ELISA on coated protein
Procedure: In a binding ELISA, human or mouse IL-2Rα, IL-2Rβ and IL-2Rγ proteins were coated directly on maxisorp microtiter plates overnight at 4° C. Free binding sites were blocked using 4% Marvel in PBS for 1 hour. Next, 1:5 dilution of P.E. in 1% Marvel/PBS were added to wells and incubated for 1 hour. […] Binding specificity was determined based on O.D. at 450 nm values compared to negative controls.

koff (human IL-2Rβ [1]) | P.E. binding ELISA OD (human IL-2Rβ [2]) | Binder
0.00122 s⁻¹ | 0.38 OD450 nm | FJ1427_P035MP03G11 (VHH, soluble VHH in periplasmic extract; also called clone nr) VHH: EVQLVESGGGLVQAGGSLRLSCAASGDVFVRYTMAWFRQAPGKEREFVASVTDSGRTTDYVDSVKGRFTVSRDNAKNTVYLQMNNLKPEDTAVYYCAANTDYFQIRSLEFNTWGQGTQVTVSS
0.000853 s⁻¹ | 0.435 OD450 nm | FJ1427_P035MP06B02 (VHH, soluble VHH in periplasmic extract; also called clone nr; 490) VHH: QVQLVESGGGLVQAGGSLRLSCVVSGDVFVRYTMAWFRQAPGKEREFVAAVTDSGRTTEYVDSVKGRFTVSRDNAKNTVYLQMNNLKPEDTAVYYCAANTDYFQIRSVDNNAWGQGTQVTVSS
0.00148 s⁻¹ | 0.624 OD450 nm | FJ1427_P035MP03E11 (VHH, soluble VHH in periplasmic extract; also called clone nr) VHH: EVQLVESGGGLVQAGGSLRLSCVVSGDVFVRYTMAWFRQAPGKEREFVAAVTDSGRTTEYVDSVKGRFTVSRDNAKNTVYLQMNNLEPEDTAVYYCAANTDYFQIRSVDNNAWGQGTQVTVSS
0.000713 s⁻¹ | 0.843 OD450 nm | FJ1427_P035MP03G09 (VHH, soluble VHH in periplasmic extract; also called clone nr) VHH: QVQLVESGGGLVQAGGSLRLSCVVSGDVFVRYTMAWFRQAPGKEREFVAVVTDSGRTTEYVDSVKGRFTVSRDNAKNTVYLQMNNLKPEDTAVYYCAANTDYFQIRSVDNNAWGQGTQVTVSS
0.00168 s⁻¹ | 0.211 OD450 nm | FJ1427 P035MP03E07 (VHH, soluble VHH in periplasmic extract; also called clone nr) VHH: QVQLVESGGGLVQAGGSLRLSCAVSGDVFVRYTMAWFRQAPGKEREFVATVTDSGRTTEYVDSVKGRFTVSRDNAKNTVYLQMNNLKPEDTAVYYCAANTDYFRIRSLDANTWGQGTQVTVSS
0.00149 s⁻¹ | 0.148 OD450 nm | FJ1427_P035MP06E02 (VHH, soluble VHH in periplasmic extract; also called clone nr) VHH: QVQLVESGGGLVQAGGSLRLSCAVSGDVFVRYTMAWFRQAPGKEREFVATVTDSGRTTEYVDSVKGRFTVSRDNAKNTVYLQMNNLKPEDTAVYYCAANTDYFRIRSLDANTWGQGTQVTVSS
0.000544 s⁻¹ | 1.34 OD450 nm | FJ1427_P035MP06C01 (VHH, soluble VHH in periplasmic extract; also called clone nr) VHH: QVQLVESGGGLVQAGGSLRLSCAASGDVFVRYTMAWFRQAPGKEREFVASVTDSGRTTDYVDSVKGRFTVSRDNAKNTVYLQMNALKPEDTAVYYCAANTDYFQIKSLDLNTWGQGTQVTVSS
0.000455 s⁻¹ | 0.799 OD450 nm | FJ1427 P035MP06C02 (VHH, soluble VHH in periplasmic extract; also called clone nr) VHH: QVQLVESGGGLVQAGGSLRLSCVVSGDVFVRYTMAWFRQAPGKEREFVAVVTDSGRTTEYVDSVKGRFTVSRDNAKNTVYLQMNNLKPEDTAVYYCAANTDYFQIRSVDNNAWGQGTQVTVSS
0.00031 s⁻¹ | 1.1 OD450 nm | FJ1427 P035MP06D01 (VHH, soluble VHH in periplasmic extract; also called clone nr) VHH: QVQLVESGGRLVQAGGSLRLSCAASGDVFVRYTMAWFRQAPGKEREFVASVTDSGRTTEYVDSVKGRFTVSRDNAKNTAYLQMNNLKPEDTAVYYCAANTDYFQIRSLNLNTWGQGTQVTVSS
0.00202 s⁻¹ | 0.467 OD450 nm | FJ1427_P035MP03B09 (VHH, soluble VHH in periplasmic extract; also called clone nr) VHH: QVQLVESGGGLVQAGGSLRLSCVVSGDVFVRYTMAWFRQAPGKEREFVTSITDSGRTTEYVDSVKGRFTVSRDNAKNTVYLQMNNLKPEDTAVYYCAANTDYFRIRSLDANTWGQGTQVTVSS
0.000561 s⁻¹ | 0.348 OD450 nm | FJ1427_P035MP06A01 (VHH, soluble VHH in periplasmic extract; also called clone nr) VHH: QVQLVESGGGLVQAGGSLRLACALSGDVFVRYTMAWFRQAPGKEREFVASVTDSGRTTDYVASVQGRFTVSRDNNKNTVYLQMNSLKPEDTAVYYCAANTDYFQIRSLDRNTWGQGTQVTVSS
0.000898 s⁻¹ | 0.401 OD450 nm | FJ1427_P035MP03B05 (VHH, soluble VHH in periplasmic extract; also called clone nr) VHH: EVQLVESGGGLVQAGGSLRLACALSGDVFVRYTMAWFRQAPGKEREFVASVTDSGRTTDYVASVQGRFTVSRDNNKNTVYLQMNSLKPEDTAVYYCAANTDYFQIRSLDRNTWGQGTQVTVSS
0.00055 s⁻¹ | 1.26 OD450 nm | FJ1427_P035MP03G08 (VHH, soluble VHH in periplasmic extract; also called clone nr) VHH: QVQLVESGGGLVQAGGSLRLACALSGDVFVRYTMAWFRQAPGKGREFVASVTDSGRTTDYVASVQGRFTVSRDNNKNTVYLQMNSLKPEDTAVYYCAANTDYFQIRSLDRNTWGQGTQVTVSS
0.000636 s⁻¹ | 0.983 OD450 nm | FJ1427_P035MP03A10 (VHH, soluble VHH in periplasmic extract; also called clone nr) VHH: QVQLVESGGGLVQAGGSLRLACALSGDVFVRYTMAWFRQAPGKEREFVASVTDSGRTTDYVASVQGRFTVSRDNNKNTVYLQMNSLKPEDTAVYYCAANTDYFQIRSLDRNTWGQGTQVTVSS
0.00172 s⁻¹ | 0.649 OD450 nm | FJ1427_P035MP03H07 (VHH, soluble VHH in periplasmic extract; also called clone nr) VHH: EVQLVESGGGLVQAGGSLRLSCVVSGDVFVRYTMAWFRQAPGKEREFVAAVTDSGRTTEYVDSVKGRFTVSRDNAKNTVYLQMNNLKPEDTAVYYCAANTDYFQIRSVDNNAWGQGTQVTVSS
0.000402 s⁻¹ | 0.153 OD450 nm | FJ1427_P035MP03F04 (VHH, soluble VHH in periplasmic extract; also called clone nr) VHH: EVQLVESGGGLVQTGGSLRLSCAASGSQFINDVMGWYRQVPGKQRELVADMDDTGSTKYADSVKGRFTILRDSVKNTAYLQMSNLKPEDTGVYYCKAGLWIKGRHSDYWGQGTQVTVSS
0.000286 s⁻¹ | 0.434 OD450 nm | FJ1427_P035MP03F06 (VHH, soluble VHH in periplasmic extract; also called clone nr) VHH: QVQLQESGGGLVQTGGSLRLSCAASGSQFINDVMGWYRQVPGKQRELVADMDDTGSTKYADSVKGRFTILRDSVKNTAYLQMSNLKPEDTGVYYCKAGLWIKGRHSDYWGQGTQVTVSS

The next lines start with the binder.

Binder | koff (human IL-2Rβ [1]) | P.E. binding ELISA OD (human IL-2Rβ [2])
FJ1427_P035MP06B01 (VHH, soluble VHH in periplasmic extract; also called clone nr) VHH: QVQLVESGGGLVQAGGSLRLSCAASGDVFVRYTMAWFRQAPGKEREFVASVTDSGRTTDYVHSVKGRFTVSRDNAKNTVYLQMNNLKPEDTAVYYCAANTDYFQIRSLDANTWGQGTQVTVSS | 0.0021 s⁻¹ | 0.521 OD450 nm
FJ1427 P035MP03B10 (VHH, soluble VHH in periplasmic extract; also called clone nr) VHH: QVQLVESGGGLVQAGGSLRLSCVVSGDVFVRYTMAWFRQAPGKEREFVAVVTDSGRTTEYVDSVKGRFTVSRDNAKNTVYLQMNNLKPEDTAVYYCAANTDYFQIRSVDNNAWGQGTQVTVSS | 0.000707 s⁻¹ | 0.286 OD450 nm
FJ1427 P035MP03B11 (VHH, soluble VHH in periplasmic extract; also called clone nr) VHH: EVQLVESGGGLVQAGGSLRLACALSGDVFVRYTMAWFRQAPGKEREFVASVTDSGRTTDYVASVQGRFTVSRDNNKNTVYLQMNSLKPEDTAVYYCAANTDYFQIRSLDRNTWGQGTQVTVSS | 0.000622 s⁻¹ | 0.987 OD450 nm
FJ1427 P035MP03C11 (VHH, soluble VHH in periplasmic extract; also called clone nr) VHH: QVQLVESGGGLVQAGGSLRLACALSGDVFVRYTMAWFRQAPGKEREFVASVTDSGRTTDYVASVQGRFTVSRDNNKNTVYLQMNSLKPEDTAVYYCAANTDYFQIRSLDRNTWGQGTQVTVSS | 0.000514 s⁻¹ | 1.31 OD450 nm
FJ1427 P035MP03B12 (VHH, soluble VHH in periplasmic extract; also called clone nr) VHH: EVQLVESGGGLVQAGGSLRLSCAASGDVFVRYTMAWFRQAPGKEREFVAAVTDSGRTADYVDSVKGRFTVSRDNAKNTVYLQMNNLKPEDTAVYYCAANTDYFQIRSLDRNTWGQGTQVTVSS | 0.00125 s⁻¹ | 0.202 OD450 nm
FJ1427 P035MP03D09 (VHH, soluble VHH in periplasmic extract; also called clone nr; 260) VHH: QVQLVESGGGLVQAGGSLRLSCAVSGDVFVRYTMAWFRQAPGKEREFVASVTDSGRTTDYVHSVKGRFTVSRDNAKNTVYLQMNNLKPEDTAVYYCAANTDYFQIKSLDANTWGQGTQVTVSS | 0.00161 s⁻¹ | 0.313 OD450 nm
FJ1427 P035MP03C06 (VHH, soluble VHH in periplasmic extract; also called clone nr) VHH: QVQLVESGGGLVQAGGSLRLACALSGDVFVRYTMAWFRQAPGKEREFVASVTDSGRTTDYVASVQGRFTVSRDNNKNTVYLQMNSLKPEDTAVYYCAANTDYFQIRSLDRNTWGQGTQVTVSS | 0.000658 s⁻¹ | 1.21 OD450 nm
FJ1427 P035MP03B08 (VHH, soluble VHH in periplasmic extract; also called clone nr; 250) VHH: QVQLVESGGGLVQAGGSLRLACALSGDVFVRYTMAWFRQAPGKEREFVASVTDSGRTTDYVASVQGRFTVSRDNNKNTVYLQMNSLKPEDTAVYYCAANTDYFQIRSLDRNTWGQGTQVTVSS | 0.00064 s⁻¹ | 1.12 OD450 nm
FJ1427 P035MP03D07 (VHH, soluble VHH in periplasmic extract; also called clone nr) VHH: EVQLVESGGGLVQAGGSLRLSCAASGDVFVRYTMAWFRQAPGKEREFVASVTDSGRTTDYGDSVKGRFTVSRDNAKNTVYLQMNNLKPEDTAVYYCAANTDYFQIRSLDANTWGQGTQVTVSS | 0.00263 s⁻¹ | 0.209 OD450 nm
FJ1427 P035MP03C08 (VHH, soluble VHH in periplasmic extract; also called clone nr) VHH: EVQLVESGGGLVQAGGSLRLACALSGDVFVRYTMAWFRQAPGKEREFVASVTDSGRTTDYVASVQGRFTVSRDNNKNTVYLQMNSLKPEDTAVYYCAANTDYFQIRSLDRNTWGQGTQVTVSS | 0.000757 s⁻¹ | 0.972 OD450 nm
FJ1427 P035MP03B04 (VHH, soluble VHH in periplasmic extract; also called clone nr) VHH: QVQLVESGGGLVQTGGSLRLSCAASGSQFINDVMGWYRQVPGKQRELVADMDDTGSTKYADSVKGRFTILRDSVKNTAYLQMSNLKPEDTGVYYCKAGLWIKGRHSDYWGQGTQVTVSS | 0.00043 s⁻¹ | 0.186 OD450 nm
